Values of other authors, collected in publication PMC3295331.

Molecular target: Cav3.1 (UniProt O54898)
UniProt O54898, sequence (O54898 whole entry): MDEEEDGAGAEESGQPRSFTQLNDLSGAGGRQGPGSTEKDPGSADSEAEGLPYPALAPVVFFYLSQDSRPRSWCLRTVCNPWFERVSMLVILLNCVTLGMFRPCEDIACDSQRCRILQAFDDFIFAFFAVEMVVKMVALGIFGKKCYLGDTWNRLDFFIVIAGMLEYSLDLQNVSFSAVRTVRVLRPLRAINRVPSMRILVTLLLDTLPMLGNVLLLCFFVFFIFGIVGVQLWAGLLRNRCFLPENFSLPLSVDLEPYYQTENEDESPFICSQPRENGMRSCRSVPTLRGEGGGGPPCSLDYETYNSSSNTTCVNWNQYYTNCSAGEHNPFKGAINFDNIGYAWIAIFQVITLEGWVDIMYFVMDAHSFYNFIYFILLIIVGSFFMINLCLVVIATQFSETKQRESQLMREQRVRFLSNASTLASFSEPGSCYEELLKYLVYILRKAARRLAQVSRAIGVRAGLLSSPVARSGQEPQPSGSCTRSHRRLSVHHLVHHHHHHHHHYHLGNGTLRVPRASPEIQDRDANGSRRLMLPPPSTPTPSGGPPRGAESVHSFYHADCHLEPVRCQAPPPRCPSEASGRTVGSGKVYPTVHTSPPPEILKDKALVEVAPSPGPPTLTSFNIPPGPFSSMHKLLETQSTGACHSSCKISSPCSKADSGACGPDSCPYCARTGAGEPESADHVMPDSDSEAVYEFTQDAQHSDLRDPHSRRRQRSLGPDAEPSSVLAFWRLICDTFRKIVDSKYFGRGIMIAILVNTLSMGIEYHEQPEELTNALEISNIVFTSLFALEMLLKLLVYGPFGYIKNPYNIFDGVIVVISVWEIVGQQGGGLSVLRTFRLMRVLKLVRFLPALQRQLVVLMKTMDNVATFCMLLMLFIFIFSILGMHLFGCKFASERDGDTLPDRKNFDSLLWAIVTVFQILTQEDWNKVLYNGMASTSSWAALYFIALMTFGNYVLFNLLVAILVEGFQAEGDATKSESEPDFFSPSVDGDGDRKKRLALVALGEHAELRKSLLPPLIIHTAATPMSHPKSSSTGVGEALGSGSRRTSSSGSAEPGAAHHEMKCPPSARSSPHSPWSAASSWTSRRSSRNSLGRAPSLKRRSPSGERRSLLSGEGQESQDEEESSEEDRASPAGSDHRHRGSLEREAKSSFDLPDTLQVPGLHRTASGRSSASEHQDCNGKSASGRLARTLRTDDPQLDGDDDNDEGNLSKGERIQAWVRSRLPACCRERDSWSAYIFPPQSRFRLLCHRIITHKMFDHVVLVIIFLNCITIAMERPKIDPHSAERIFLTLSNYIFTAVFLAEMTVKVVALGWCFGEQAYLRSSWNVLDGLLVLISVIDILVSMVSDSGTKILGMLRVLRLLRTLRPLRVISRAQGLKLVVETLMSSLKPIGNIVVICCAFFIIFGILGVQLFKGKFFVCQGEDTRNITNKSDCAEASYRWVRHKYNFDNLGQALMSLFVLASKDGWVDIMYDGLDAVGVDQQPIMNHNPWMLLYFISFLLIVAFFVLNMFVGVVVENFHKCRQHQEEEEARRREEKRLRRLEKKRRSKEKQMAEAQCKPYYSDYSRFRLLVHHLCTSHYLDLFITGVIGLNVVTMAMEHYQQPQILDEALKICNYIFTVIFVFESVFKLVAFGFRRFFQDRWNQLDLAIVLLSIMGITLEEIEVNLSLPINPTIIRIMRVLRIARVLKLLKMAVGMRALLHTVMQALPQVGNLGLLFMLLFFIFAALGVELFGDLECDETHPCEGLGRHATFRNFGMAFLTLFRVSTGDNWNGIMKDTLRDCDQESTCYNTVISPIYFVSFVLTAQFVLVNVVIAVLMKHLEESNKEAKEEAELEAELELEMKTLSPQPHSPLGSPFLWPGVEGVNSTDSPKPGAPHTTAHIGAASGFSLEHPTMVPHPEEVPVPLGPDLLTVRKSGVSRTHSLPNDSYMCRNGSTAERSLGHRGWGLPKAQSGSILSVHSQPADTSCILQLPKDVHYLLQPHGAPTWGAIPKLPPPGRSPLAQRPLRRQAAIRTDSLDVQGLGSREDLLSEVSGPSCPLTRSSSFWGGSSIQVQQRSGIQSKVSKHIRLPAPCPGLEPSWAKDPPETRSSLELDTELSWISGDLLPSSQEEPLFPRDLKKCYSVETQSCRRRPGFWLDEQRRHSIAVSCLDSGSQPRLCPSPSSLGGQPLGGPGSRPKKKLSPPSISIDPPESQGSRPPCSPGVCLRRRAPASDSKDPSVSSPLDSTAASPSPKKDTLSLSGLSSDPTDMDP

Kurtoxin (from UniProt P58910)
Kd: 15 nM
